# Reference: patent US20240344138A1, “TARGETED THERAPIES IN CANCER” (Feng Biosciences, Inc, priority 2021, published 2024)
# B1: Navicixizumab plus chemotherapy: navicixizumab plus chemotherapy (e.g., capecitabine in breast; docetaxel, cabazitaxel in prostate) (antibody, chains of the INN, looked up, V domains shown)
# VH: QVQLVQSGAEVKKPGASVKISCKASGYSFTAYYIHWVKQAPGQGLEWIGYISNYNRATNYNQKFKGRVTFTTDTSTSTAYMELRSLRSDDTAVYYCARDYDYDVGMDYWGQGTLVTVSS
# VL: DIVMTQSPDSLAVSLGERATISCRASESVDNYGISFMKWFQQKPGQPPKLLIYAASNQGSGVPDRFSGSGSGTDFTLTISSLQAEDVAVYYCQQSKEVPWTFGGGTKVEIK
# VH2: QVQLVQSGAEVKKPGASVKVSCKASGYTFTNYWMHWVRQAPGQGLEWMGDINPSNGRTSYKEKFKRRVTLSVDKSSSTAYMELSSLRSEDTAVYFCTIHYDDKYYPLMDYWGQGTLVTVSS
# VL2: B1 VL
# modifications: plus chemotherapy
# B2: PARPi/Navicixizumab (antibody, chains of the INN, looked up, V domains shown)
# VH: B1 VH
# VL: B1 VL
# VH2: B1 VH2
# VL2: B1 VL
# modifications: with PARP inhibitor
# B3: Navixicizumab (antibody, chains of the INN, looked up, V domains shown)
# VH: B1 VH
# VL: B1 VL
# VH2: B1 VH2
# VL2: B1 VL
# B4: PARPi/Navicixumab (antibody, chains of the INN, looked up, V domains shown)
# VH: B1 VH
# VL: B1 VL
# VH2: B1 VH2
# VL2: B1 VL
# modifications: with PARP inhibitor
# B5: PARPi/Immune Checkpoint Inhibitor/Navicixizumab (antibody, chains of the INN, looked up, V domains shown)
# VH: B1 VH
# VL: B1 VL
# VH2: B1 VH2
# VL2: B1 VL
# modifications: with PARP inhibitor and checkpoint inhibitor
# B6: PARPi/Immune Checkpoint Inhibitor/Navixicizumab (antibody, chains of the INN, looked up, V domains shown)
# VH: B1 VH
# VL: B1 VL
# VH2: B1 VH2
# VL2: B1 VL
# modifications: with PARP inhibitor and checkpoint inhibitor
# B7: PARPi/immune checkpoint inhibitor/Navicixumab (antibody, chains of the INN, looked up, V domains shown)
# VH: B1 VH
# VL: B1 VL
# VH2: B1 VH2
# VL2: B1 VL
# modifications: with PARP inhibitor and checkpoint inhibitor
# Legend:
# Type in all cases: in vivo, human
# [1] = test system: castration-resistant metastatic prostate cancer; assay: Third-line clinical trial of navicixizumab/chemotherapy or navicixizumab/PARP inhibitor, outcome by TME phenotype; details: plus chemotherapy group
# Protocol: A clinical trial is run to determine whether castration-resistant metastatic prostate cancer tumor microenvironment phenotypes correlate to clinical responses when patients are treated with a combination of Navicixizumab/chemotherapy or Navicixizumab/PARP inhibitor in the third-line setting. […] Patients receive either Navicixizumab/chemotherapy (BRCA WT) or Navicixizumab/PARP inhibitor (BRCA mutant). RNA gene signatures are analyzed from tumor samples acquired before any treatments and TME phenotypes are determined. Patients are followed for clinical response, progression-free survival and overall survival. […] BRCA WT prostate cancer patients receive a regimen of Navicixizumab plus chemotherapy (e.g., docetaxel, cabazitaxel etc.). BRCA mutant prostate cancer patients receive a regimen of Navicixizumab plus a PARP inhibitor (e.g., Rucaparib, Olaparib, etc.). […] The correlation between each TME phenotype is tested against clinical outcome data. In tumors that are biomarker positive, represented by angiogenic (A) and immune suppressed (IS) phenotypes, the use of Navicixizumab combinations confers benefit in comparison to patients classified as biomarker negative, represented by immune active (IA) and immune desert (ID) TME phenotype classes as shown in the TABLE 29 and TABLE 30.
# [2] = test system: locally advanced/metastatic HER2-negative breast cancer; assay: Second-line clinical trial of navicixizumab/chemotherapy or navicixizumab/PARP inhibitor, outcome by TME phenotype; details: plus chemotherapy group
# Protocol: A clinical trial is run to determine whether locally advanced/metastatic HER2-negative breast cancer tumor microenvironment phenotypes correlate to clinical responses when patients are treated with a combination of Navicixizumab/chemotherapy or Navicixizumab/PARP inhibitor in the second-line setting. […] Patients receive either Navicixizumab/chemotherapy (BRCA WT and hormone receptor-positive) or Navicixizumab/PARP inhibitor (BRCA mutant or triple-negative for ER/PR/HER2). RNA gene signatures are analyzed from tumor samples acquired before any treatments and TME phenotypes are determined. Patients are followed for clinical response and progression-free survival. […] BRCA WT/hormone receptor-positive/HER2-negative breast cancer patients receive a regimen of Navicixizumab plus chemotherapy (e.g., capecitabine, etc.). BRCA mutant or triple-negative for ER/PR/HER2 breast cancer patients receive a regimen of Navicixizumab plus a PARP inhibitor (e.g., Rucaparib, Olaparib, etc.). […] The correlation between each TME phenotype is tested against clinical outcome data. In biomarker positive tumors, represented by angiogenic (A) and immune suppressed (IS) phenotypes, the use of Navicixizumab combinations confers benefit in comparison to patients classified as biomarker negative, represented by immune active (IA) and immune desert (ID) TME phenotype classes as shown in the TABLE 27 and TABLE 28.
# [3] = test system: platinum-resistant or platinum-sensitive recurrent ovarian cancer; assay: Clinical trial of PARP inhibitor and navicixizumab in PARP naive and PARP resistant cohorts, ORR by TME phenotype
# Protocol: A clinical trial is run to determine whether ovarian cancer tumor microenvironment phenotypes correlate to clinical responses when patients are treated with a PARP inhibitor, and navicixizumab in PARP naïve patients or patients that previously progressed on PARP inhibitor. The analysis includes samples from two different cohorts (one consisting of PARP inhibitor naïve patients and one consisting of PARP resistant patients). 40 patients from each cohort are randomized to 2 different treatment arms (20 patients in each arm). Patients are randomized to receive either a PARP inhibitor in combination with navicixizumab or PARP inhibitor monotherapy (PARP naïve cohort) or PARP inhibitor in combination with navicixizumab or navicixizumab monotherapy (PARP resistant). RNA gene signatures are analyzed from tumor samples acquired before the treatments and TME phenotypes are determined. Patients are followed for clinical response.
# Ovarian cancer patients are randomized to receiving a regimen of PARP inhibitor (Olaparib, Rucaparib, Niraparib, etc.) plus navicixizumab, PARP monotherapy (PARP naive) or Navicixizumab monotherapy. The combination of PARP inhibitor/Navicixizumab increases overall response rate in patients with recurrent ovarian cancer compared to navicixizumab alone in both the PARP naive and PARP resistant cohorts as shown in TABLE 35. […] Eighty (80) total patients are enrolled, 20 in each of the treatment groups across the two cohorts with equal representation across the 4 stromal phenotypes (5 in each phenotype per treatment group). The correlation between each TME phenotype is tested against clinical outcome data. In immune suppressed (IS), and angiogenic (A) patients the use of the regimen of PARPi/Navicixizumab confers benefit in comparison to patients classified to immune active (IA) and immune desert (ID) TME phenotype classes as shown in the TABLE 36.
# [4] = test system: platinum-resistant or platinum-sensitive recurrent triple negative breast cancer; assay: Clinical trial of PARP inhibitor, immune checkpoint inhibitor and navicixizumab, ORR by TME phenotype
# Protocol: A clinical trial is run to determine whether the triple negative breast cancer (TNBC) tumor microenvironment phenotypes correlate to clinical responses when patients are treated with a PARP inhibitor, an immune checkpoint inhibitor, and Navicixizumab after recurrence on platinum-based chemotherapy. The analysis includes samples from two different cohorts (one consisting of platinum-sensitive patients and one consisting of platinum-resistant patients). 40 patients from each cohort are randomized to 2 different treatment arms (20 patients in each arm). Patients are randomized to receive either (i) a PARP inhibitor and an immune checkpoint inhibitor or (ii) a PARP inhibitor, an immune checkpoint inhibitor and Navicixizumab. RNA gene signatures are analyzed from tumor samples acquired before the treatments and TME phenotypes are determined. Patients are followed for clinical response.
# TNBC patients are randomized to receiving a regimen of PARP inhibitor (olaparib, rucaparib, niraparib, etc.) plus an immune checkpoint inhibitor (anti-PD-(L)1—i.e., an inhibitor to PD-1 or PD-L1) therapy, or a regimen of PARP inhibitor/immune checkpoint inhibitor/Navicixizumab. The combination of PARP inhibitor/immune checkpoint inhibitor/Navicixizumab increases overall response rate in patients with TNBC compared to the regimen of PARP inhibitor/immune checkpoint inhibitor alone in both the platinum-sensitive and platinum-resistant cohorts as shown in TABLE 37. […] Eighty (80) total patients are enrolled, 20 in each of the treatment groups across the two cohorts with equal representation across the 4 stromal phenotypes (5 in each phenotype per treatment group). The correlation between each TME phenotype is tested against clinical outcome data. In immune active (IA), immune suppressed (IS), and angiogenic (A) patients the use of the regimen of PARPi/immune checkpoint inhibitor/Navicixizumab confers benefit in comparison to patients classified to immune desert (ID) TME phenotype classes as shown in the TABLE 38.
# [5] = PARP resistant cohort, n = 20 per treatment group
molecule,measurement,setting,value
B1,ORR (%),[1]; A (n = 10),54%
same,OS (months),[1]; A (n = 10),19.0 months
same,PFS (months),[1]; A (n = 10),13.5 months
same,ORR (%),[1]; Biomarker Negative (n = 20),34%
same,OS (months),[1]; Biomarker Negative (n = 20),11.9 months
same,PFS (months),[1]; Biomarker Negative (n = 20),9.8 months
same,ORR (%),"[1]; Biomarker Positive (n = 20), BRCA WT",56%
same,OS (months),[1]; Biomarker Positive (n = 20),20.1 months
same,PFS (months),[1]; Biomarker Positive (n = 20),14.2 months
same,ORR (%),[1]; IA (n = 10),37%
same,OS (months),[1]; IA (n = 10),12.0 months
same,PFS (months),[1]; IA (n = 10),10.9 months
same,ORR (%),[1]; ID (n = 10),31%
same,OS (months),[1]; ID (n = 10),11.8 months
same,PFS (months),[1]; ID (n = 10),8.7 months
same,ORR (%),[1]; IS (n = 10),58%
same,OS (months),[1]; IS (n = 10),21.2 months
same,PFS (months),[1]; IS (n = 10),14.7 months
same,ORR (%),[2]; A (n = 15),60%
same,PFS (months),[2]; A (n = 15),11.5 months
same,ORR (%),[2]; Biomarker Negative (n = 30),20%
same,PFS (months),[2]; Biomarker Negative (n = 30),5.7 months
same,ORR (%),"[2]; Biomarker Positive (n = 30), BRCA WT, hormone receptor-positive",63.4%
same,PFS (months),[2]; Biomarker Positive (n = 30),12.3 months
same,ORR (%),[2]; IA (n = 15),26.7%
same,PFS (months),[2]; IA (n = 15),6.0 months
same,ORR (%),[2]; ID (n = 15),13.3%
same,PFS (months),[2]; ID (n = 15),5.4 months
same,ORR (%),[2]; IS (n = 15),66.7%
same,PFS (months),[2]; IS (n = 15),13.1 months
B2,Overall response rate (ORR),"[3]; PARP naiive cohort, n = 20 per treatment group",65%
same,Overall response rate (ORR),[3]; [5],40%
B3,Overall response rate (ORR),[3]; [5],25%
B4,Overall response rate (ORR),"[3]; PARP naive cohort, TME phenotype A (n = 5)",100
same,Overall response rate (ORR),"[3]; PARP naive cohort, TME phenotype IA (n = 5)",40
same,Overall response rate (ORR),"[3]; PARP naive cohort, TME phenotype ID (n = 5)",40
same,Overall response rate (ORR),"[3]; PARP naive cohort, TME phenotype IS (n = 5)",80
same,Overall response rate (ORR),"[3]; PARP resistant cohort, TME phenotype A (n = 5)",60
same,Overall response rate (ORR),"[3]; PARP resistant cohort, TME phenotype IA (n = 5)",20
same,Overall response rate (ORR),"[3]; PARP resistant cohort, TME phenotype ID (n = 5)",20
same,Overall response rate (ORR),"[3]; PARP resistant cohort, TME phenotype IS (n = 5)",60
B5,Overall response rate (ORR),"[4]; Platinum-sensitive cohort, n = 20 per treatment group",80%
B6,Overall response rate (ORR),"[4]; Platinum-resistant cohort, n = 20 per treatment group",45%
B7,Overall response rate (ORR),"[4]; Platinum-resistant cohort, TME phenotype A (n = 5)",40
same,Overall response rate (ORR),"[4]; Platinum-resistant cohort, TME phenotype IA (n = 5)",60
same,Overall response rate (ORR),"[4]; Platinum-resistant cohort, TME phenotype ID (n = 5)",0
same,Overall response rate (ORR),"[4]; Platinum-resistant cohort, TME phenotype IS (n = 5)",80
same,Overall response rate (ORR),"[4]; Platinum-sensitive cohort, TME phenotype A (n = 5)",100
same,Overall response rate (ORR),"[4]; Platinum-sensitive cohort, TME phenotype IA (n = 5)",80
same,Overall response rate (ORR),"[4]; Platinum-sensitive cohort, TME phenotype ID (n = 5)",60
same,Overall response rate (ORR),"[4]; Platinum-sensitive cohort, TME phenotype IS (n = 5)",80
